B1: RCCD1 (protein, UniProt A6NED2 1-376, looked up)
RCC1 domain-containing …: MAEERPGAWFGFGFCGFGQELGSGRGRQVHSPSPLRAGVDICRVSASWSYTAFVTRGGRLELSGSASGAAGRCKDAWASEGLLAVLRAGPGPEALLQVWAAESALRGEPLWAQNVVPEAEGEDDPAGEAQAGRLPLLPCARAYVSPRAPFYRPLAPELRARQLELGAEHALLLDAAGQVFSWGGGRHGQLGHGTLEAELEPRLLEALQGLVMAEVAAGGWHSVCVSETGDIYIWGWNESGQLALPTRNLAEDGETVAREATELNEDGSQVKRTGGAEDGAPAPFIAVQPFPALLDLPMGSDAVKASCGSRHTAVVTRTGELYTWGWGKYGQLGHEDTTSLDRPRRVEYFVDKQLQVKAVTCGPWNTYVYAVEKGKS
B2: CCDC85C (protein, UniProt A6NKD9 2-419, looked up)
Coiled-coil domain-containing …: AKPAATAAAASEELSQVPDEELLRWSKEELARRLRRAEGEKVGLMLEHGGLMRDVNRRLQQHLLEIRGLKDVNQRLQDDNQELRELCCFLDDDRQKGRKLAREWQRFGRHAAGAVWHEVARSQQKLRELEARQEALLRENLELKELVLLLDEERAALAATGAASGGGGGGGGAGSRSSIDSQASLSGPLSGGAPGAGARDVGDGSSTSSAGSGGSPDHHHHVPPPLLPPGPHKAPDGKAGATRRSLDDLSAPPHHRSIPNGLHDPSSTYIRQLESKVRLLEGDKLLAQQAGSGEFRTLRKGFSPYHSESQLASLPPSYQDSLQNGPACPAPELPSPPSAGYSPAGQKPEAVVHAMKVLEVHENLDRQLQDSCEEDLSEKEKAIVREMCNVVWRKLGDAASSKPSIRQHLSGNQFKGPL
B3: RTL8C (protein, UniProt O15255 1-206, looked up)
CAAX box protein 1: MGGGRGLLGRETLGPGGGCSGEGPLCYWPPPGSPPAPSLRASLPLEPPRCPLRSCSLPRSACLCSRNSAPGSCCRPWASLWSEPPPSPSSQPAPPMYIWTLSCAPAASWAPVTHWTDHPLPPLPSPLLPTRLPDDYIILPTDLRCHSHRHPSHPTDRLLLLVIWTHLGGIWAGHSPWTVIQTAGRPPRDLSPSARPISSPPPETSC
B4: SNAP23 (protein, UniProt O00161 1-211, looked up)
Synaptosomal-associated …: MDNLSSEEIQQRAHQITDESLESTRRILGLAIESQDAGIKTITMLDEQKEQLNRIEEGLDQINKDMRETEKTLTELNKCCGLCVCPCNRTKNFESGKAYKTTWGDGGENSPCNVVSKQPGPVTNGQLQQPTTGAASGGYIKRITNDAREDEMEENLTQVGSILGNLKDMALNIGNEIDAQNPQIKRITDKADTNRDRIDIANARAKKLIDS
B5: MEIOC (protein, UniProt A2RUB1 1-952, looked up)
Meiosis-specific coiled-coil …: MEVRRGDTCPRPHPSGLREEGLEPKVAFPGGANRCWNLGADAGSRLTDVFGSVMLTGSASFYDCYTSQSEDNVDLRQTYTPFSSTEYSSSVDSSLFCAPWSTYGDDIKQPSNSQISIKNRIQTERNDYGSETDLYGLVSNILEEQDKSQPYFAEGTCSSNLKSVWPMNTSRFADHHDLLTETKRPIDTVISQQAFYSDESVSAMEKQYLRNSNLTPQQKIDELHHGFTGLDLEEQWMYPSRSDHSNCHNIQTNDTAKTTFQEYPLIKNCFTPQTGLSDIMKESGVDIYHYGRDRICTKGLEAPLQQKRAEMFLSQFNRYNENVDYCRYPEYVHPNKAKLNKCSNFSVQDSKKLANGTPETPTVEADTYTKLFQVKPANQKKMEETIPDQQNFTFPKTTPHLTEKQFAKEAVFTADFGLTSEYGLKPHTACPANDFANVTEKQQFAKPDPPHSEYFKSVNLLSNSATSSGGINLNRPTWMNVQTKNNTPIPYRNQGNLMKLNSHLSAASKGSNHSSDFPQLSSTNLTPNSNLFQKYCQENPSAFSSFDFSYSGAERIQSVNHIEGLTKPGEENLFKLVTDKKIKQPNGFCDNYSAQKYGIIENVNKHNFQAKPQSGHYDPEEGPKHLDGLSQNTYQDLLESQGHSNSHRTRGGDNSRVNRTQVSCFSNNYMMGDLRHNQCFQQLGSNGFPLRSTHPFGHSVVPLLDSYDLLSYDDLSHLYPYFNMMYGDNSFSGLMPTFGFQRPIKTRSGPASELHIRLEECCEQWRALEKERKKTELALAKNYPGKKVSSTNNTPVPRLTSNPSRVDRLIVDELRELARVVTLLGKMERLRSSLLHASISTALDRHLESIHIVQSRRKDEIVNASNRQRQGVPRCQDDRDVFALASAIKEMCVATRKTRTALWCALQMTLPKTASTADVVKPLQDTVNCEDKVHESINSSNPMNQRGETNKH

Test system: FLAG-USP20
Assay: IP-MS of FLAG-USP20 and variants vs empty vector
Type: cell-based, human
[1] = IP-MS, FLAG-USP20-ΔDUSP2 vs EV, comparison bh_2 Sample_Limma_ImpMedInt_USP20_DUSP2_domain/EV
[2] = IP-MS, FLAG-USP20 UBP mutant vs EV, comparison USP20_E55K_D59R/EV, Limma
[3] = IP-MS, FLAG-USP20 vs EV, comparison USP20_wt/EV, Limma
[4] = Table S7b USP20 MS_and_motif, bait USP20

Experimental: For transfection, 1x10^6 HEK293 cells were seeded in 10 cm dishes with DMEM, 10% FBS, 1% L-G (without antibiotic) medium, incubated at 37 °C, with 5 % CO2 for 24 h. Cells were transfected with a transfection mix containing 970 mL of Opti-MEM (Thermo Fisher Scientific), 20 μL of PEI stock (1 mg/mL) and 5 mg of the desired cDNA. For co-transfection, 2.5 μg of DNA of each plasmid was used. The mix was vortexed for 15 s and incubated at room temperature for 15–20 min. The transfection mix was added to the dish and gently mixed. Plates were incubated at 37 °C for 36–48 h before harvesting. For USP33 constructs, 5 μM Bortezomib (proteasome inhibitor) was added 4 hours before harvesting the cells.
FLAG fusion proteins were immunoprecipitated from HEK293 cells transfected with plasmids encoding the protein of interest using the anti-FLAG M2 affinity gel from Sigma-Aldrich. […] The cell lysate was clarified by centrifugation at 17,000 x g, at 4 °C for 12 min, and the supernatant was transferred to a clean, pre-chilled low-binding Eppendorf tube. […] The IP samples were centrifuged at 6500 x g at 4 °C for 30 s. The supernatant containing the unbound proteins was transferred to a clean tube. The resin was washed three times with 500 μL of TBS, centrifuged at 6500 x g at 4 °C for 30 s. The bound FLAG fusion protein was eluted with 100 μL of 150 ng/μL 3X FLAG peptide (Sigma) in TBS and incubated in the cold room for 1 h or overnight. The tube was centrifuged at 6500 x g at 4 °C for 30 s; the eluted proteins were transferred to a clean tube. The eluted proteins were prepared for analysis by western blot or Mass Spectrometry.
Immunoprecipitation (IP) was carried out as described above; four technical replicates of each IP condition were performed, and the empty vector was used as a negative control. The eluted protein was processed following the Strap-micro protocol (Protifi). The IP elution containing 1–100 μg protein was 1:1 mixed with 2X lysis buffer (10% SDS, 100 mM TEAB pH 8.5). […] Samples were vortexed, mixed with 165 μL of 100 mM TEAB in 90% methanol, and passed through an S-Trap micro column at 4000 g for 30 s to trap the proteins. The column was washed with 150 μL of 100 mM TEAB in 90% methanol (at 4,000 x g for 30 seconds) three times. The S-Trap column was centrifuged again and transferred to a clean 2 mL tube for digestion with 20 μL of digestion buffer (1 μg trypsin per 10 μg sample in 50 mM TEAB), at 37 °C overnight in a thermomixer without shaking. The digested peptides were eluted with 40 mL of 50 mM TEAB in water, 40 mL of 0.2 % formic acid in water, and 40 mL of 50 % acetonitrile in water, centrifuging at 4000 x g for 1 min each time. The three elutions were pooled in a low-binding tube, placed on dry ice until frozen, dried in a SpeedVac vacuum (Thermo Scientific), and proceeded with the LCMS analysis.
Eluted peptides were analyzed using data-independent acquisition mode on the mass spectrometer.
Peptides were searched against the Uniprot Swissprot Human database (released on 02/01/2023) supplemented with the USP20 and USP33 mutants using DiaNN (v1.9.0)[62] operating in library-free mode. Data filtering and statistical analysis were carried out in Python (v3.9.0) using the packages pandas, numpy, sklearn, scipy, rpy2, Plotnine, and Plotly and R (v4.4.3) using the package limma.
Protein groups identified with a single peptide or quantified in fewer than three replicates in at least 1 condition were filtered out. Protein group intensities were median normalized and missing values were imputed using a Gaussian distribution centered on the median with a downshift of 1.8 and width of 0.3 (relative to the standard deviation).

Molecule | log2_FC [1] | log2_FC [2] | log2_FC [3] | log2_FC [4] | log2_FC (IP-MS, FLAG-USP20-ΔUBP vs EV, comparison bh_2 Sample_Limma_ImpMedInt_USP20_UBP_domain/EV)
B1 | 4 | 4.331 |  |  | 
B2 |  | 3.963 | 4.015 | 4.015 | 
B3 | 4.856 | 5.261 |  |  | 
B4 | 6.953 |  |  |  | 
B5 |  | 4.883 | 5.071 | 5.071 | 4.277

Reference: paper PMC13376213, “Systematic discovery of motif-based interactions of the auxiliary domains of USP family deubiquitinases” (Nature Communications, 2026)
